Measured values published in US20200109207A1 (CELLDEX THERAPEUTICS, published 2020).
Positions count from the first letter of the chain named.

T1: human CD27 ECD with mutated amino acids 85, 87, 88 and 89 (A85S, R87A, N88A and G89A) (human, UniProt P26842 21-188)
T1 construct: also called mutated huCD27; mutated CD27 ECD
T1 chain: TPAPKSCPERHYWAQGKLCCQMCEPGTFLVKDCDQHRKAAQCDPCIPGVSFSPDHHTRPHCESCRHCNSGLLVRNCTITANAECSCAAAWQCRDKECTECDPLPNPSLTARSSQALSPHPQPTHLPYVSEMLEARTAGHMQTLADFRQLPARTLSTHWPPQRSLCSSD

T2: recombinant human CD27-FLAG-HIS (human, UniProt P26842 20-191)
T2 sequence: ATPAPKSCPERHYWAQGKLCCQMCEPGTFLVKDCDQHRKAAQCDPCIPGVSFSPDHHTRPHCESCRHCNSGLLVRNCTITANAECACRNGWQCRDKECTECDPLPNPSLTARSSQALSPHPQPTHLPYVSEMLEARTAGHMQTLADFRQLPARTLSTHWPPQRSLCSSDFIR

T3: full length wild type extracellular domain (ECD) of human CD27 (human, UniProt P26842 21-188)
T3 construct: also called wild type huCD27; ECD of huCD27
T3 sequence: T1 chain with S85A, A87R, A88N, A89G

T4: human CD27 on the cell surface (Ramos cells, human CD3+ T cells, CD27 reporter cell line) (human, UniProt P26842 20-260)
T4 construct: also called CD27 on cells
T4 sequence: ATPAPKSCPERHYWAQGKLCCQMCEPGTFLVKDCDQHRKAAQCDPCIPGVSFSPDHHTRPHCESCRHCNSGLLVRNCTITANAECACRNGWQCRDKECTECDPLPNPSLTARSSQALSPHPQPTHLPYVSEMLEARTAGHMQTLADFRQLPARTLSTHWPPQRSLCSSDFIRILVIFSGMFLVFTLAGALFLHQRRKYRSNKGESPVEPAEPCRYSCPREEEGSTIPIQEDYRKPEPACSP

B1: anti-CD27 human monoclonal antibody 2B3 (antibody, V domains shown)
VH: QVQLVQSGAEVKKPGASVKVSCKASGYTFTGYYIHWVRQAPGQGLEWMGWINPNSGGTNSAQKFQDRVTITRVTSINTAYMELSRLRSDDTAVYFCARDRLVLPWFGEIFPDAFDIWGQGTLVTVSS
VL: EIVMTQSPATLSVSPGERATLSCRASQSIRSNLAWYQQKPGQAPRLLIYGASTRATGIPARFSGSGSGTEFTLTISSLQSENFAVYYCQQYNNWPLTFGGGTKVEIK
notes: In the cynomolgus CD27 ELISA hybridoma supernatants were used (human V regions with rat constant regions); also called mAb 2B3
B2: anti-CD27 human monoclonal antibody 3C2 (antibody, V domains shown)
VH: QAQLQESGPGLVKPSETLSLTCTVSTGSISGYYWSWIRQPPGKGLEWIGYNYYSGSTNYNPSLKSRVTISIDTSKNQFSLKLNSVTAADTAVYYCARYPLIRGAFDYWGQGTLVTVSS
VL: not shown
notes: hybridoma supernatant (rat constant regions) in the cynomolgus CD27 ELISA
B3: CDX-527 (9H9×2B3 bispecific antibody: anti-PD-L1 IgG1 9H9 with anti-CD27 2B3 scFv) (bispecific antibody)
heavy: not shown
light: DIQMTQSPSTLSASVGDRVTITCRASQSISGWLAWYQQKPGKAPKLLIYKASSLESGVPSRFSGSGSGTEFTLTISSLQPDDFATYYCQQYYGSSRTFGQGTNVEIKRTVAAPSVFIFPPSDEQLKSGTASVVCLLNNFYPREAKVQWKVDNALQSGNSQESVTEQDSKDSTYSLSSTLTLSKADYEKHKVYACEVTHQGLSSPVTKSFNRGEC

Experiments:
[1] = target: T1, human CD27 ECD with mutated amino acids …; test: ELISA, plate coated with mutated CD27 ECD; supernatant of transiently transfected cells expressing mAb 2B3; anti-human IgG Fc-HRP
Procedure: (§1) The full length wild type extracellular domain (ECD) of human CD27 or human CD27 with mutated amino acids 85, 87, 88, and 89 (A85S, R87A, N88A and G89A; see FIG. 34) were coated to a plate, then blocked. Supernatant from transiently transfected cells expressing mAb 2B3 was added and binding was detected with an HRP conjugated goat anti-human IgG Fc polyclonal antibody.

[2] = target: T2, recombinant human CD27-FLAG-HIS; test: ELISA, plate coated with recombinant human CD27-FLAG-HIS
Procedure: Microtiter plates were coated with recombinant human CD27-FLAG-HIS in PBS, and then blocked with 5% bovine serum albumin in PBS. Protein A purified human monoclonal antibodies were added at various concentrations and incubated at 37° C. The plates were washed with PBS/Tween and then incubated with a goat-anti-human IgG Fc-specific polyclonal reagent conjugated to horseradish peroxidase at 37° C. After washing, the plates were developed with HRP substrate, and analyzed at OD 450-650 nm using a microtiter plate reader.

[3] = target: T3, full length wild type extracellular …; test: ELISA, plate coated with wild type CD27 ECD; supernatant of cells expressing mAb 2B3; anti-human IgG Fc-HRP
Procedure: as §1

[4] = target: T4, human CD27 on the cell surface (Ramos …); test: flow cytometry, Ramos cells expressing human CD27, antibody 3 µg/ml
Procedure: Antibodies were tested for binding to a human cell line expressing human CD27 on their surface. Protein A purified human monoclonal antibodies (3 μg/ml) were incubated with Ramos cells expressing human CD27 at room temperature on a plate shaker. After 20 minutes, the cells were washed with PBS containing 0.1% BSA and 0.05% NaN₃ (PBA) and the bound antibodies were detected by incubating the cells with a PE labeled goat anti-human IgG Fc-specific probe. The excess probe was washed from the cells with PBA and the cell associated fluorescence was determined by analysis using a FACSCanto II™ instrument (BD Biosciences, NJ, USA) according to the manufacturer's directions.

[5] = target: T2, recombinant human CD27-FLAG-HIS; test: bifunctional ELISA generally as in Example 16 (CD27-FLAG-HIS coated, PD-L1-msFc detected)
Procedure: Binding of bispecific constructs to CD27 and PD-L1 was assessed using a bifunctional ELISA. Antibody AbX is a known anti-PD-L1 monoclonal antibody. In brief, a microtiter plate was coated with human CD27-FLAG-HIS. Dilutions of the bispecific constructs were allowed to bind before adding human PD-L1-msFc that was detected with an HRP labeled goat anti-mouse IgG (Fc specific) antibody.

Row | Binder | binding result [1] | binding result [2] | binding result [3] | binding result [4] | binding result [5]
1 | B1 | no binding | binds | binds | binds | –
2 | B2 | – | binds | – | binds | –
3 | B3 | – | – | – | – | binds
